± gives the standard deviation of the averaged measurements.

This series concerns ATP. The series can be described thus: switch fluorescence ratio, 500 uM ATP over buffer (Cy3 cluster intensity, sum of 5 cycles each) (fold (ratio)); higher = stronger signal-on switching upon ATP binding; sequences stand for … in TCGTCGGCAGCGTCAGATGTGTATAAGAGACAGTTTTTTTTTTTTTTTTTTTTTTTTT…TC. To be noted: aptamer strand: ATP DNA aptamer (quencher-CACCTGGGGGAGTATTGCGGAGGAAGG + anchor), 100 nM annealed; ATP concentration: 500 uM. In a few lines: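 Exposure to 500 uM ATP lasted 15 min at 22 °C before imaging, and a selection-buffer image was taken beforehand, for Cy3-labelled switching-strand clusters on a modified Illumina MiSeq flow-cell annealed to 100 nM quencher-labelled ATP aptamer. Five buffer/ATP cycles were run with NaOH stripping and re-annealing between them. The fluorescence ratio per cluster is summed target-cycle over summed buffer-cycle Cy3 intensity, averaged per switch-domain sequence. Clusters outside 100-1000 RFU were excluded.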

As for GGTATTGAAG, the switch fluorescence ratio turned out to be 0.999 ± 0.024.
Consider GGTATTGTTT, for which the switch fluorescence ratio was 0.9881 ± 0.0066.
As for GGTATTTAGG, the switch fluorescence ratio came out at 1.02 ± 0.029.
In the case of GGTCAAATAA, the switch fluorescence ratio amounted to 0.99 ± 0.042.
GGTCACTGCG: the switch fluorescence ratio came out at 0.9955 ± 0.0064.
Consider GGTCAGCCGG, for which the switch fluorescence ratio was 1.02 ± 0.012.
As to GGTCAGTGGT, the switch fluorescence ratio was 1 ± 0.022.
Next, GGTCAGTTAT: 0.99 ± 0.047; GGTCATAGGT: 0.994 ± 0.022; GGTCATATAG: 1.032 ± 0.0012.
GGTCATGGTG: the switch fluorescence ratio is 1.08 ± 0.024.
As for GGTCATTGGA, the switch fluorescence ratio turned out to be 1.09 ± 0.064.
GGTCCATTTT: the switch fluorescence ratio came out at 0.969 ± 0.017.
Consider GGTCCCGGTG, for which the switch fluorescence ratio came out at 1.1 ± 0.013.
Take GGTCCGGCGG: the switch fluorescence ratio came to 0.984 ± 0.057.
On to GGTCCGGGCG, for which the switch fluorescence ratio was determined as 0.997 ± 0.024.
Regarding GGTCCGGGTT, the switch fluorescence ratio is 1.006 ± 0.01.
For GGTCCGGTTC, the switch fluorescence ratio was 1.01 ± 0.025.
As to GGTCCGTAGT, the switch fluorescence ratio worked out at 1.04 ± 0.017.
Consider GGTCCTGGGA, for which the switch fluorescence ratio is 1.02 ± 0.059.
In the case of GGTCCTGTCG, the switch fluorescence ratio was found to be 1.03 ± 0.042.
For GGTCGAAATT, the switch fluorescence ratio was 1.15 ± 0.31.
The figure for GGTCGAAGGG is 0.985 ± 0.051.
GGTCGAGAGG: the switch fluorescence ratio amounted to 0.971 ± 0.03.
Turning to GGTCGCACGG, the switch fluorescence ratio amounted to 1.02 ± 0.026.
The figure for GGTCGGCTAG is 0.9954 ± 0.0083; for GGTCGGGGAA it is 1.01 ± 0.042.
As to GGTCGTGGCA, the switch fluorescence ratio stood at 0.969 ± 0.028.
Turning to GGTCGTTCGC, the switch fluorescence ratio amounted to 1.01 ± 0.038.
Consider GGTCGTTTTT, for which the switch fluorescence ratio is 1.044 ± 0.0029.
On to GGTCTAATCT, for which the switch fluorescence ratio came to 1.04 ± 0.015.
With GGTCTACTTT, the switch fluorescence ratio turned out to be 0.998 ± 0.021.
GGTCTAGCCT: the switch fluorescence ratio worked out at 0.9858 ± 0.0066.
GGTCTAGGTG: the switch fluorescence ratio amounted to 1.2586 ± 0.00091.
With GGTCTCCGGC, the switch fluorescence ratio was 1.01 ± 0.065.
Turning to GGTCTCTTTG, the switch fluorescence ratio worked out at 0.9663 ± 0.0084.
As to GGTCTGATTG, the switch fluorescence ratio amounted to 1.01 ± 0.065.
Consider GGTCTGCTTA, for which the switch fluorescence ratio amounted to 0.9828 ± 0.0065.
Next, GGTCTGTTTT: 0.992 ± 0.022; GGTCTTAGTG: 0.982 ± 0.017.
Take GGTGAACGTG: the switch fluorescence ratio was 0.97 ± 0.041.
As for GGTGACAGCT, the switch fluorescence ratio stood at 0.979 ± 0.023.
With GGTGACTATT, the switch fluorescence ratio amounted to 0.979 ± 0.037.
Consider GGTGAGGGGT, for which the switch fluorescence ratio is 0.997 ± 0.035.
Next, GGTGATAGCT: 0.987 ± 0.076; GGTGATAGGG: 0.98 ± 0.036; GGTGATGAGA: 0.991 ± 0.06.
On to GGTGATTCTG, for which the switch fluorescence ratio was found to be 0.965 ± 0.038.
The figure for GGTGATTGCT is 0.967 ± 0.036; for GGTGCAGCGG it is 0.982 ± 0.018; for GGTGCCAAGG it is 0.959 ± 0.02.
With GGTGCGACTC, the switch fluorescence ratio is 1.04 ± 0.05.
For the sequence GGTGCGGGAT, the switch fluorescence ratio came to 0.992 ± 0.043.
In the case of GGTGCGGTTG, the switch fluorescence ratio is 0.9975 ± 0.00035.
GGTGGACGGG: the switch fluorescence ratio worked out at 0.974 ± 0.015.
As to GGTGGAGAGG, the switch fluorescence ratio was determined as 0.929 ± 0.018.
GGTGGAGTTT: the switch fluorescence ratio was found to be 0.987 ± 0.015.
The figure for GGTGGATCTT is 1.03 ± 0.015.
In the case of GGTGGATGGG, the switch fluorescence ratio came to 0.987 ± 0.014.
Next, GGTGGCATTT: 1.08 ± 0.011; GGTGGCGTAC: 1.018 ± 0.01; GGTGGGAAGT: 0.987 ± 0.021.
Regarding GGTGGGAGTT, the switch fluorescence ratio turned out to be 1.04 ± 0.032.
On to GGTGGGATTA, for which the switch fluorescence ratio is 1.014 ± 0.009.
Consider GGTGGGGCGT, for which the switch fluorescence ratio is 1 ± 0.017.
Take GGTGGGGGAG: the switch fluorescence ratio worked out at 1.01 ± 0.043.
Consider GGTGGGGGCA, for which the switch fluorescence ratio worked out at 0.979 ± 0.029.
For the sequence GGTGGGGGCC, the switch fluorescence ratio was 1.03 ± 0.011.
As to GGTGGGGTGA, the switch fluorescence ratio came out at 0.9856 ± 0.0078.
In the case of GGTGGGTCGG, the switch fluorescence ratio came out at 0.98 ± 0.036.
GGTGGGTGCT: the switch fluorescence ratio is 0.995 ± 0.052.
With GGTGGGTTGC, the switch fluorescence ratio amounted to 0.9858 ± 0.0086.
As to GGTGGTAAGA, the switch fluorescence ratio is 0.978 ± 0.074.
The figure for GGTGGTCGAG is 0.989 ± 0.02; for GGTGGTCGGT it is 0.9787 ± 0.0066.
GGTGGTGGGA: the switch fluorescence ratio was determined as 0.977 ± 0.04.
For GGTGGTGGGG, the switch fluorescence ratio is 0.968 ± 0.03.
In the case of GGTGGTTGCA, the switch fluorescence ratio was 1 ± 0.024.
Take GGTGTACGGG: the switch fluorescence ratio was 0.987 ± 0.036.
Turning to GGTGTAGTAT, the switch fluorescence ratio amounted to 0.9759 ± 0.008.
In the case of GGTGTATAA, the switch fluorescence ratio worked out at 0.995 ± 0.032.
The figure for GGTGTATTTA is 1.02 ± 0.017.
With GGTGTCAGCT, the switch fluorescence ratio amounted to 0.967 ± 0.038.
On to GGTGTCCGGG, for which the switch fluorescence ratio was determined as 0.9986 ± 0.0019.
Next, GGTGTCGGGA: 0.9705 ± 0.009; GGTGTCGGTC: 0.956 ± 0.049; GGTGTGCATA: 0.994 ± 0.028.
Regarding GGTGTGCATG, the switch fluorescence ratio is 0.99 ± 0.053.
Regarding GGTGTGCTTT, the switch fluorescence ratio is 1.02 ± 0.025.
GGTGTGGGCA: the switch fluorescence ratio amounted to 0.998 ± 0.041.
As for GGTGTGGTGG, the switch fluorescence ratio was 1.01 ± 0.027.
For the sequence GGTGTGTTCT, the switch fluorescence ratio is 0.985 ± 0.011.
As for GGTGTTACTG, the switch fluorescence ratio is 1.03 ± 0.048.
For GGTGTTCGCA, the switch fluorescence ratio turned out to be 1.02 ± 0.014.
As for GGTGTTCGGA, the switch fluorescence ratio was determined as 1 ± 0.031.
On to GGTGTTGAAG, for which the switch fluorescence ratio is 0.986 ± 0.044.
As to GGTGTTGTTT, the switch fluorescence ratio came out at 0.963 ± 0.019.
On to GGTGTTTATG, for which the switch fluorescence ratio came to 0.9841 ± 0.0034.
As to GGTGTTTTAG, the switch fluorescence ratio amounted to 0.989 ± 0.021.
Consider GGTGTTTTTG, for which the switch fluorescence ratio was found to be 1.05 ± 0.054.
In the case of GGTTAAAGAG, the switch fluorescence ratio amounted to 0.9868 ± 0.008.
In the case of GGTTAACTTG, the switch fluorescence ratio was 0.975 ± 0.034.
For the sequence GGTTAAGAAC, the switch fluorescence ratio came to 0.993 ± 0.019.
As for GGTTAATGTT, the switch fluorescence ratio came to 0.998 ± 0.026.
On to GGTTAATTAA, for which the switch fluorescence ratio is 1.03 ± 0.019.
Regarding GGTTAATTAC, the switch fluorescence ratio stood at 1.02 ± 0.034.
In the case of GGTTAATTTT, the switch fluorescence ratio is 1.02 ± 0.028.
Turning to GGTTACCTTT, the switch fluorescence ratio came to 0.996 ± 0.042.
GGTTACGGGT: the switch fluorescence ratio was found to be 0.994 ± 0.057.
On to GGTTAGCGTC, for which the switch fluorescence ratio worked out at 1.03 ± 0.059.
Next, GGTTAGGAAA: 0.998 ± 0.021.
With GGTTAGGCAT, the switch fluorescence ratio is 1 ± 0.0058.
For the sequence GGTTAGTGGG, the switch fluorescence ratio is 0.998 ± 0.017.
As to GGTTATAGTA, the switch fluorescence ratio turned out to be 0.989 ± 0.042.
With GGTTATGTTG, the switch fluorescence ratio is 0.977 ± 0.047.
Take GGTTATTAAA: the switch fluorescence ratio is 0.998 ± 0.01.
For the sequence GGTTCAAAGT, the switch fluorescence ratio came out at 0.9703 ± 0.0047.
For the sequence GGTTCAGCCT, the switch fluorescence ratio was found to be 1.01 ± 0.018.
As to GGTTCATACG, the switch fluorescence ratio was 1.008 ± 0.0041.
For GGTTCATGTG, the switch fluorescence ratio is 1.01 ± 0.015.

Source of the values: the supplement of paper PMC10126150.
